Assay results as given in the supplement of paper PMC7877785.
± gives the uncertainty stated by the source.

Test: self-splicing fitness, log relative to wild type (ln ratio); higher = more splicing; Tetrahymena group I intron in knt gene, E. coli kanamycin selection, DiMSum; sequences stand for … in CUCUCU…GGAGGGAAAAGUUAUCAGGCAUGCACCUGGUAGCUAGUCUUUAAACCAAUAGAUUGCAUCGGUUUAAAAGGCAAGACCGUCAAAUUGCGGGAAAGGGGUCAACAGCCGUUCAGUACCAAGUCUCAGGGGAAACUUUGAGAUGGCCUUGCAAAGGGUAUGGUAAUAAGCUGACGGACAUGGUCCUAACCACGCAGCCAAGUCCUAAGUCAACAGAUCUUCUGUUGAUAUGGAUGCAGUUCACAGACUAAAUGUCGGUCGGGGAAGAUGUAUUCUUCUCAUAAGAUAUAGUCGGACCUCUCCUUAAUGGGAGCUAGCGGAUGAAGUGAUGCAACACUGGAGCCGCUGGGAACUAAUUUGUAUGCGAAAGUAUAUUGAUUAGUUUUGGAGUACUCGUGGUCG
How it was run: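 Library with all eight P1ex-region intron nucleotides randomised, intron inside the knt kanamycin-resistance gene on pET-22b(+), in E. coli BL21(DE3). Cells grew overnight at 37°C or 30°C on LB agar with or without 25 μg/mL kanamycin (plus 100 μg/mL carbenicillin, 50 μM IPTG, 0.2% rhamnose), in six replicate transformations. Pooled colonies were amplicon-sequenced on Illumina HiSeq 2500. DiMSum fitness is the error-weighted combination of wild-type-normalised replicate fold changes, kanamycin versus none.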

Sequence | self-splicing fitness (ln) (30 °C) | self-splicing fitness (ln) (37 °C)
GACCAGCAAUAUUACGCUCA | -0.152 ± 0.059 | -0.295 ± 0.079
GACCAGCAAUAUUACGCUCU | -0.6 ± 0.061 | 0.0283 ± 0.089
GACCAGCAAUAUUACGCUGU | -3.34 ± 0.15 | -1.54 ± 0.095
GACCAGCAAUAUUACGGGGG | -1.92 ± 0.08 | -1.17 ± 0.089
GACCAGCAAUAUUACGGUAG | -0.241 ± 0.066 | 0.668 ± 0.085
GACCAGCAAUAUUACGGUCA | -1.44 ± 0.099 | -0.935 ± 0.1
GACCAGCAAUAUUACGGUGC | -2.31 ± 0.067 | -2.09 ± 0.09
GACCAGCAAUAUUACGUACG | -1.34 ± 0.074 | -0.696 ± 0.088
GACCAGCAAUAUUACGUCGU | -0.568 ± 0.052 | -0.218 ± 0.069
GACCAGCAAUAUUACGUGAC | -1.27 ± 0.069 | -1.7 ± 0.11
GACCAGCAAUAUUACGUGCA | -0.378 ± 0.07 | -0.122 ± 0.086
GACCAGCAAUAUUACGUGUA | -0.635 ± 0.06 | 0.255 ± 0.074
GACCAGCAAUAUUACGUGUC | -3.52 ± 0.16 | -3.05 ± 0.24
GACCAGCAAUAUUACGUUAG | -3.82 ± 0.24 | -2.79 ± 0.2
GACCAGCAAUAUUACGUUUU | -0.363 ± 0.036 | -0.174 ± 0.052
GACGAGCAAUAUUACGACCC | -0.0053 ± 0.24 | -0.307 ± 0.22
GACGAGCAAUAUUACGAGGC | -3.33 ± 0.18 | -2.85 ± 0.29
GACGAGCAAUAUUACGCAUC |  | -2.06 ± 0.36
GACGAGCAAUAUUACGCCUU | -3.3 ± 0.4 | -1.48 ± 0.24
GACGAGCAAUAUUACGCGCC | -2.74 ± 0.19 | -1.59 ± 0.25
GACGAGCAAUAUUACGCGUG | -3.11 ± 0.29 | -1.77 ± 0.21
GACGAGCAAUAUUACGCUGA | -3.74 ± 0.35 | -1.95 ± 0.24
GACGAGCAAUAUUACGGGAU | -4.33 ± 0.28 | -1.74 ± 0.18
GACGAGCAAUAUUACGGUAC | -1.99 ± 0.39 | -1.98 ± 0.34
GACGAGCAAUAUUACGGUAG | -4.01 ± 0.36 | -2.18 ± 0.22

Sequence | self-splicing fitness (ln) (30 °C) | self-splicing fitness (ln) (37 °C)
GACGAGCAAUAUUACGGUGC | -2.72 ± 0.28 | -1.47 ± 0.25
GACGAGCAAUAUUACGUUGU | -3.4 ± 0.14 | -2.74 ± 0.16
GACUAGCAAUAUUACGACUA | -1.04 ± 0.16 | -0.443 ± 0.14
GACUAGCAAUAUUACGAGCC | -1.28 ± 0.17 | -0.877 ± 0.26
GACUAGCAAUAUUACGAGGA | -2.29 ± 0.17 | -1.43 ± 0.14
GACUAGCAAUAUUACGAUAG | -2.95 ± 0.16 | -1.17 ± 0.12
GACUAGCAAUAUUACGCAAC | -0.979 ± 0.15 | -1.54 ± 0.19
GACUAGCAAUAUUACGCAAG | -4.58 ± 0.36 | -1.6 ± 0.15
GACUAGCAAUAUUACGCACA | -0.58 ± 0.13 | 0.00566 ± 0.14
GACUAGCAAUAUUACGCCGA | -0.898 ± 0.21 | -0.421 ± 0.2
GACUAGCAAUAUUACGCGGG | -2.7 ± 0.22 | -1.75 ± 0.18
GACUAGCAAUAUUACGCUGA | -1.16 ± 0.14 | -0.638 ± 0.14
GACUAGCAAUAUUACGGACU | -0.117 ± 0.11 | -0.611 ± 0.14
GACUAGCAAUAUUACGGAUC | -0.87 ± 0.096 | -0.304 ± 0.14
GACUAGCAAUAUUACGGCGU | -0.502 ± 0.11 | -0.198 ± 0.1
GACUAGCAAUAUUACGGCUA | -2.4 ± 0.17 | -0.921 ± 0.12
GACUAGCAAUAUUACGGGAC | -2.29 ± 0.17 | -1.44 ± 0.19
GACUAGCAAUAUUACGGUAA | -0.126 ± 0.084 | -0.197 ± 0.078
GACUAGCAAUAUUACGGUCC |  | -1.49 ± 0.42
GACUAGCAAUAUUACGGUGA | -1.07 ± 0.11 | -0.694 ± 0.097
GACUAGCAAUAUUACGUACA | -1.02 ± 0.14 | -0.0348 ± 0.15
GACUAGCAAUAUUACGUCCA | -2.24 ± 0.29 | -1.47 ± 0.26
GACUAGCAAUAUUACGUGGC | -3.56 ± 0.24 | -2.54 ± 0.21
GAGAAGCAAUAUUACGAAGG | -2.97 ± 0.24 | 
GAGAAGCAAUAUUACGAAUC | -3.91 ± 0.31 | -1.12 ± 0.19

Sequence | self-splicing fitness (ln) (30 °C) | self-splicing fitness (ln) (37 °C)
GAGAAGCAAUAUUACGAAUG | -3.46 ± 0.28 | -1.7 ± 0.18
GAGAAGCAAUAUUACGACCG | -0.945 ± 0.32 | -0.457 ± 0.27
GAGAAGCAAUAUUACGACGC | -0.75 ± 0.15 | -0.292 ± 0.17
GAGAAGCAAUAUUACGAGGA | -3.83 ± 0.33 | -2.11 ± 0.19
GAGAAGCAAUAUUACGAGGG | -3.49 ± 0.17 | -2.99 ± 0.19
GAGAAGCAAUAUUACGCAAG | -1.6 ± 0.2 | -0.212 ± 0.21
GAGAAGCAAUAUUACGCACC | -1.91 ± 0.28 | -1.41 ± 0.42
GAGAAGCAAUAUUACGCAUC | -3.12 ± 0.43 | -2.6 ± 0.35
GAGAAGCAAUAUUACGCCAC |  | -0.779 ± 0.37
GAGAAGCAAUAUUACGCCUU | -2.46 ± 0.26 | -0.767 ± 0.27
GAGAAGCAAUAUUACGCUGU | -3.35 ± 0.3 | -1.45 ± 0.29
GAGAAGCAAUAUUACGCUUG | -2.34 ± 0.1 | -0.658 ± 0.13
GAGAAGCAAUAUUACGGGGC | -3.04 ± 0.19 | -3.05 ± 0.23
GAGAAGCAAUAUUACGUGUG | -2.18 ± 0.12 | -1.96 ± 0.15
GAGAAGCAAUAUUACGUUAU | -3.33 ± 0.19 | -2.47 ± 0.16
GAGAAGCAAUAUUACGUUGA | -3.28 ± 0.21 | -1.19 ± 0.17
GAGAAGCAAUAUUACGUUGC | -3.47 ± 0.24 | -3.31 ± 0.31
GAGCAGCAAUAUUACGAACA | -1.47 ± 0.12 | -1.07 ± 0.15
GAGCAGCAAUAUUACGACUU | -0.557 ± 0.11 | -0.841 ± 0.14
GAGCAGCAAUAUUACGAGGG |  | -2.81 ± 0.38
GAGCAGCAAUAUUACGAUCA | -2.14 ± 0.15 | -1.99 ± 0.15
GAGCAGCAAUAUUACGAUUA | -2.26 ± 0.15 | -1.13 ± 0.12
GAGCAGCAAUAUUACGCAGU | -3.57 ± 0.2 | -1.4 ± 0.17
GAGCAGCAAUAUUACGCCAA | -1.55 ± 0.29 | -1.43 ± 0.31
GAGCAGCAAUAUUACGCCGG | -4.11 ± 0.39 | -1.82 ± 0.3

Sequence | self-splicing fitness (ln) (30 °C) | self-splicing fitness (ln) (37 °C)
GAGCAGCAAUAUUACGCGAC | -3.05 ± 0.49 | -1.13 ± 0.29
GAGCAGCAAUAUUACGCUAG | -2.4 ± 0.14 | -1.53 ± 0.17
GAGCAGCAAUAUUACGCUAU | -2.73 ± 0.27 | -1.93 ± 0.17
GAGCAGCAAUAUUACGCUCA | -2.14 ± 0.2 | -1.91 ± 0.16
GAGCAGCAAUAUUACGCUGG | -3 ± 0.16 | -1.47 ± 0.16
GAGCAGCAAUAUUACGGAGC | -3.14 ± 0.13 | -0.471 ± 0.11
GAGCAGCAAUAUUACGGCAA | -0.276 ± 0.062 | -0.126 ± 0.072
GAGCAGCAAUAUUACGGCGA | -1.21 ± 0.099 | -0.604 ± 0.11
GAGCAGCAAUAUUACGGUAU | -2.9 ± 0.11 | -1.34 ± 0.1
GAGCAGCAAUAUUACGGUGG | -3.9 ± 0.2 | -2.31 ± 0.16
GAGCAGCAAUAUUACGGUUG | -3.18 ± 0.17 | -1.99 ± 0.16
GAGCAGCAAUAUUACGUAUA | -3.2 ± 0.27 | -2.97 ± 0.27
GAGCAGCAAUAUUACGUAUG | -2.86 ± 0.14 | -2.5 ± 0.2
GAGCAGCAAUAUUACGUCAC | -3.67 ± 0.18 | -1.3 ± 0.17
GAGCAGCAAUAUUACGUGUC | -2.9 ± 0.12 | -2.01 ± 0.12
GAGGAGCAAUAUUACGAGUG | -2.88 ± 0.35 | -2.5 ± 0.23
GAGGAGCAAUAUUACGCAUG | -3.19 ± 0.48 | -2.65 ± 0.3
GAGGAGCAAUAUUACGCUCG | -1.49 ± 0.14 | -1.26 ± 0.22
GAGGAGCAAUAUUACGCUUC |  | -3.68 ± 0.46
GAGGAGCAAUAUUACGCUUG | -1.28 ± 0.15 | -1.27 ± 0.2
GAGGAGCAAUAUUACGGCCG |  | -1.55 ± 0.39
GAGGAGCAAUAUUACGGCUU | -3.52 ± 0.37 | -2.39 ± 0.25
